Assay: soluble on expression in E. coli; label from the status in PepcDB or PDB records

Soluble on expression in E. coli, soluble:
MILTTSRKPSQRTRSFARDLERTLNIPYVQRGKLSLKEIFEIDKHVLLIGEFKANPGTLVVYDVENEKRLSSFISVKLQREICGEKIYNDDGIRIKISRELKDNEEFQKYYEIYDEFLFQHLNINEDSDITLRLEKDPKYLFAIQFYKGRVKIGPLIRIKSIKLFDSLLLEHHHHHH, GPGSGPVFVQEPSHVMFPLDSEEKKVKLSCEVKGNPKPHIRWKLNGTDVDIGMDFRYSVVDGSLLINNPNKTQDAGTYQCIATNSFGTIVSREAKLQFAYLENFKTRTRSTVSVRRGQGMVLLCGPPPHSGELSYAWIFNEYPSYQDNRRFVSQETGNLYIAKVEKSDVGNYTCVVTNTVTNHKVLGPPTPLILRNDGVMGEYEPKIEVQFPETVPAEKGTTVKLECFALGNPVPTILWRRADGKPIARKARRHKSNGILEIPNFQQEDAGSYECVAENSRGKNVAKGQLTFYAQPNWVQIINDIHVAMEESVFWECKANGRPKPTYRWLKNGDPLLTRDRIQIEQGTLNITIVNLSDAGMYQCVAENKHGVIFSSAELSVIAE, AMGTKSSAAVALKGLQFVTAKVGNDGWAAVEKRFNQLQVDGVLLRSRFGKCIGMDGSDEFAVQMFDSLARKRGIVKQVLTKDELKDFYEQLTDQGFDNRLRTFFDMVDKNADGRLTAEEVKEIIALSASANKLSKIKERADEYTALIMEELDPTNLGYIEMEDLEALLLQSPSEAAARS, MSLKIAIVGGPTAVGKTDIMIEVCEEIGAEIISMDSRQIYRYMDIGTAKPTPEQRKRVLHHMIDIIDPDEYYNAFMYRKDSLRAMEDVLRRGKIPVYVGGTGLYADALVRGIFEGVPADENIRKELRELERREPGILRKMLEELDPEAATRIHPNDLKRTIRALEVYMKTGRRISELQKEAKGDDRFFIIVLTRERYELYERINKRVDKMIEMGLVDEVKRLLGMGYSKDLNSMKTIGYKEVIDYLEGKYDFDKMVHLIKRNTRHFARRQIIWFKRYKEAVWYNLTFEDVGEVKEKLKKLIVENFSVEGHHHHHH, MHNQAPIQRRKSTRIYVGNVPIGDGAPIAVQSMTNTRTTDVEATVNQIKALERVGADIVRVSVPTMDAAEAFKLIKQQVNVPLVADIHFDYRIALKVAEYGVDCLRINPGNIGNEERIRMVVDCARDKNIPIRIGVNAGSLEKDLQEKYGEPTPQALLESAMRHVDHLDRLNFDQFKVSVKASDVFLAVESYRLLAKQIDQPLHLGITEAGGARSGAVKSAIGLGLLLSEGIGDTLRVSLAADPVEEIKVGFDILKSLRIRSRGINFIACPTCSRQEFDVIGTVNALEQRLEDIITPMDVSIIGCVVNGPGEALVSTLGVTGGNKKSGLYEDGVRKDRLDNNDMIDQLEARIRAKASQLDEARRIDVQQVEK, MEVEIKFKIKLEDFLHTLNTFNPEFVRYEEQEDVYFEVPRPKLLRIRGVHNLKKYYLTFKEILDENNEEFYEVEFEIGDFEKAVEVFKRLGFKIQATIKKKRWVYKLNGVTLEVNRVEGIGDFVDIEVISDSPEEAKEKIWEVAKMLGLKEEDVEPRLYLELINELSGRSSLEHHHHHH, MSYYHHHHHHLESTSLYKKAGLNNFNLHTPTRILFGKGAIAGLREQIPHDARVLITYGGGSVKKTGVLDQVLDALKGMDVLEFGGIEPNPAYETLMNAVKLVREQKVTFLLAVGGGSVLDGTKFIAAAANYPENIDPWHILQTGGKEIKSAIPMGCVLTLPATGSESNAGAVISRKTTGDKQAFHSAHVQPVFAVLDPVYTYTLPPRQVANGVVDAFVHTVEQYVTKPVDAKIHDRFAEGILLTLIEDGPKALKEPENYDVRANVMWAATQALNGLIGAGVPQDWATHMLGHELTAMHGLDHAQTLAIVLPALWNEKRDTKRAKLLQYAERVWNITEGSDDERIDAAIAATRNFFEQLGVPTHLSDYGLDGSSIPALLKKLEEHGMTQLGENHDITLDVSRRIYEAAR, MSLADLQKNFQTSFRDAMASCAAGVHVITTDGAAGRYGITMTAVAPVTDEPPTVMLCINRSARIIPILSENGSLCINTLADEHQDVAEHFAGLTGLSPEERFAYHIWHRGKTGQLEIEGALAHLHGHIVGKHEIGTHFVFYVRLDEIKNCGCKRPALLYFRRQFRFLDEGGSHHHHHH, MSLIASIGELLIDLISVEEGDLKDVRLFEKHPGGAPANVAVGVSRLGVKSSLISKVGNDPFGEYLIEELSKENVDTRGIVKDEKKHTGIVFVQLKGASPSFLLYDDVAYFNMTLNDINWDIVEEAKIVNFGSVILARNPSRETVMKVIKKIKGSSLIAFDVNLRLDLWRGQEEEMIKVLEESIKLADIVKASEEEVLYLENQGVEVKGSMLTAITLGPKGCRLIKNETVVDVPSYNVNPLDTTGAGDAFMAALLVGILKLKGLDLLKLGKFANLVAALSTQKRGAWSTPRKDELLKYKEAREVLAEGHHHHHH, DNNNTIEEQLNTLEKYSQGRLGVALINTEDNSQITYRGEERFAMASTSKVMAVAAVLKASEKQAGLLDKNITIKKSDLVAYSPITEKHLTTGMTLAELSAATLQYSDNTAMNKILDYLGGPAKVTQFARSINDVTYRLDRKEPELNTAIHGDPRDTTSPIAMAKSLQALTLGDALGQSQRQQLVTWLKGNTTGDNSIKAGLPKHWVVGDKTGSGDYGTTNDIAVIWPENHAPLILVVYFTQQEQNAKYRKDIIAKAAEIVTKEISNSPQTK, SELPVRCRNISGTLYKNRLGSGGRGRCIKQGENWYSPTEFEAMAGRASSKDWKRSIRYAGRPLQCLIQDGILNP, MSLNKEFIMKFSLKSLLTIAAAASTLILAGCGEKAVDNNKVKIGVMAGAEAQVAEVAAKVAKEKYNLDVELVTFTDYVTPNAALDDGSIDANAFQHKPYLDKQIADRGYKLAIVGNTFVYPIAGYSKQIKSVDELQDGARIAVPNDPTNLGRSLLLLQQQGLLKLREDVGLLATVRDIVENPKKLEILELDAAQLPRSLDDVALSIINTTYASSINLTPEKDGIFVENKESPYVNILVAREANVNAENVQNFKKAYQTDEVAKAASEIFQGGAVKGWEGGSHHHHHH

Soluble on expression in E. coli, not soluble:
QLIAATGCPTGIAHTYMAQEALEQAAKRKGITIKVETHGQIGIENELTPAEIQGAEAVIIAADKDVQAERFAGKRIIDVPVSVGIKEADRLIEEALAGKGSIA, MEQLRAAARLQIVLGHLGRPSAGAVVAHPTSGTISSASFHPQQFQYTLDNNVLTLEQRKFYEENGFLVIKNLVPDADIQRFRNEFEKICRKEVKPLGLTVMRDVTISKSEYAPSEKMITKVQDFQEDKELFRYCTLPEILKYVECFTGPNIMAMHTMLINKPPDSGKKTSRHPLHQDLHYFPFRPSDLIVCAWTAMEHISRNNGCLVVLPGTHKGSLKPHDYPKWEGGVNKMFHGIQDYEENKARVHLVMEKGDTVFFHPLLIHGSGQNKTQGFRKAISCHFASADCHYIDVKGTSQENIEKEVVGIAHKFFGAENSVNLKDIWMFRARLVKGERTNL, MGHHHHHHSHMNLGKESRAQTLQNGRRHIHHLGNQLQLNQHCLDTAFNFFKMAVSRHLTRGRKMAHVIAACLYLVCRTEGTPHMLLDLSDLLQVNVYVLGKTFLLLARELCINAPAIDPCLYIPRFAHLLEFGEKNHEVSMTALRLLQRMKRDWMHTGRRPSGLCGAALLVAARMHDFRRTVKEVISVVKVCESTLRKRLTEFEDTPTSQLTIDEF, MAHHHHHHMPRRFVAEYVTKHLCGVRVLESFAETSTATGVIGTHNGSFHCDEAMACGLLRCSQNFGQSNILRSRDPNALERCNIVVDVGSVYDEATLRFDHHQPSFHDTMKTPKAAYQTRLSSAGLVYKHFGREIIQGYVESALASPYRVKLLDATKWGTDKKKLSEQELDILFDIVYKNFVEHIDGIDNGVNAYGPAETEGEEGAVPVSSSSPSCVKKYNVSTTLSARIGNLMPWWNEEGNGKVENENAAFLQAMELATSEFFDSVHYHVFAWMPARGIVRAAFLEAMNVHPSGRIVVFKDCFCPWKEHLLELEEEHGKVGHVLYVLFADKKGWRVQAVPKEASGFENRKSLPWRGLRDEELSQASGIEGGIFVHVSGFIGGNKTYEGALQMAVKALTVVN, MGSDKIHHHHHHMWTPMRDGPPKGMHGGKSERPISPRMKPSGLRIWTGSPRAANSERASDEALSCTHIQTCVARLRDTFPSGTVERGQHGGTTVNLIDGIKGNRFAVFGRAGMDMFADPIGTKSEDATTFRADLGGSSANICAGLVKLGAEAALVTSVSDDAVGRFCVNRLRDYGVETRYVRAVGGEARTSLAVYESRIDDFQNVIYRNGAADFQVTKADMDAVDYSAFSALITAGTVFAAEPSRSATFRAFEHARTAGLPVIFDIDYRPYSWPSPEVASEVLTRAGEASDLIVGNDEEFGFMAGHIDKGLEKARALAAQGRMVIYKMGEAGAITIAEGQEIRTGIYPVTAVKPNGAGDSFMAGLLASIAQGHALSDAVLRGSACASIVVSQPGCANAMPTTAELEAFLASHPGPTV, SGGAVSAGEDNDELIDNLKEAQYIRTELVEQAFRAIDRADYYLEEFKENAYKDLAWKHGNIHLSAPCIYSEVMEALDLQPGLSFLNLGSGTGYLSSMVGLILGPFGVNHGVELHSDVIEYAKQKLDFFIRTSDSFDKFDFCEPSFVTGNCLEISPDCSQYDRVYCGAGVQKEHEEYMKNLLKVGGILVMPLEEKLTKITRTGPSAWETKKILAVSFAPLIQPCHSESGKSRLVQLRSPSFVQGWSVVVLSQLTAASTFQAEAILPSQSPTWLRLQVLATMPN, MGSDKIHHHHHHMTNWLPDPSALASPLHSSLALAIAKAISEGKLPKGTQLPTHRKLAEELGLSVHTVSKAYESLRRQRLIDGQVGRGSYVLDLNTPDDQPFQLSSERGRNFDLSISRPAFSQRHAELFQQVLADLPQGLDPSYYLACRPNVGHDAHRAAGETWLRICGLDVPSERIIMTNGVSHGMSAALSALARPGDTVVSSRITHHLLVSGCSYLGLNLVGIDFDQDGMLPDALDRHCSENNAKVLFLLPSLANTTVEMIPEERRQALVQVARKHNLYIIENDAFGPVAEDRPVPVAALAPERTIYLTTFTKCTVSGLRAGYMAAPEHLLPALTGRIVVFGWMATPLMCEIATRWVLDGTALELALWQRRALAERYEIASQALQGHQWRGHPSALHLWLPLESGWTTSSFVAYARQLKVAVAPDAPFLTPKTPPPNAVRISLGSVQDLSRFKQAMELVGGMLSRPPEGVAPLAF, PVSAMAKKQKNDVADWLMHKQRVQYGGRVYERSGGIKPFLKSIRDGYIGYYLPDQDHGPEHSVFVDFFATRKATLPGLGKIAKLSRSKVLPLFASMNTEDGTFDIEILPAFDLDKGEEQDARTCNEAIEYFVGDKPEQYMWVLQLLHSQEDGNNYYNLFKPRYNTDWQVEK, MGSDKIHHHHHHMIERVINNIEKVIKGKREAIEVVVAALLAKGHVLMEDVPGVGKTMLARALALSLGVDFRRVQFTPDLLPTDLTGLYIYDRKKEDFVFKKGPVFTDVLLADEINRATPRTQSALLEAMAEGQVTVDGVTHRLSERFFVIATQNPIEYEGTFPLPEAQLDRFMICVKMGYPDEEAEIQMLTSQEKEHPISQLEPVMNPDELSELQKKVRNVFVSDEVKKYIVDIASATRNHPSLLLGMSPRGSIALMHFSMALAFMDGRDFTLPDDVKRAAVYVIPHRVIQSAESKLKREKKEDIVREILDRVKVVK, MIRIDVVLPAYRPGQGWEREAISRLTALSDSIPDVTFRIFIVPDGSNEGHSDEVRSHWATSPWEVIYCDYAKNRGKGFAVRYGVGQTDAPFVLYTDYDLPFTLDSYKQVIEALLEGADVVISRREPESYGKKIRFKRKMLSDFSHFVNKFFFLPTTDTQGGLKGFSSTGRFIFLQTRIDSFLFDTEFICLAKRKKVCIAVVSGSIRPDISLSVMKAKTILREVYKIPKLIKARWFS
